Reference: patent US20150299277A1, “AGENT FOR TREATING OR PREVENTING SYSTEMIC INFLAMMATORY RESPONSE SYNDROME” (THE UNIVERSITY OF TOKYO, priority 2012, published 2015)
Entries after “also recorded” stand apart in the source; their conditions may differ. Ends that are not written are not given here.

Key:
[1] = system: Calf Thymus Histones on HUVEC; assay: Cytotoxic assay: suppression of histone cytotoxicity on HUVEC; format: cell-based, human
Procedure: After culturing for 1 hr in a medium concurrently containing 100 μg/mL Calf Thymus Histones and APC (200 nM), PTX3 (40 μg/mL), CRP (40 μg/mL) or SAP (40 μg/mL), the level of toxic activity was measured by FACS.
(§1) Normal human umbilical vein endothelial cells (HUVECs) were cultured in EGM2 medium (Clonetics). The cells after culture were washed with PBS, added with Opti-MEM medium containing an product of incubation of activated protein C (APC), PTX3, C reactive protein (CRP) or Serum amyloid P component (SAP) with histone for 1 hr, and the cells were further cultured for 1 hr. Propidium iodide (PI) was added to the medium after culture at a final concentration of 10 μg/mL, and the cells were stained for 10 min. The cells were washed with PBS, detached and analyzed by flow cytometry.
The histone cytotoxicity on HUVEC was evaluated by propidium iodide (PI) staining.
Lastly, capacity of suppressing the cytotoxic activity of histone was confirmed. Since this experiment requires a certain amount of protein and an endotoxin-elimination as treatment, a protein was expressed and purified at a 500 mL culture scale, and subjected to an endotoxin-elimination treatment (FIG. 18). In the case of PTX3 N-terminal domain, about 10 mg was obtained at a 500 mL culture scale, and a loss by the endotoxin-elimination treatment was scarcely observed. […] A capacity of fragment proteins obtained at a 500 mL scale on HUVEC to suppress histone cytotoxicity was studied. […] In consideration of the experiments relating to the binding and aggregation, all fragments were considered to possibly have a certain level of suppressive capacity.

histone H4 on HUVEC = assay: as above; format: cell-based, human
Procedure: as §1
Using each recombinant histone instead of Calf Thymus Histones, a suppressive effect of full-length PTX3 or the N-terminal domain of PTX3 on histone cytotoxicity was studied in the same manner.
Lastly, capacity of suppressing the cytotoxic activity of histone was confirmed. Since this experiment requires a certain amount of protein and an endotoxin-elimination as treatment, a protein was expressed and purified at a 500 mL culture scale, and subjected to an endotoxin-elimination treatment (FIG. 18). In the case of PTX3 N-terminal domain, about 10 mg was obtained at a 500 mL culture scale, and a loss by the endotoxin-elimination treatment was scarcely observed. […] A capacity of fragment proteins obtained at a 500 mL scale on HUVEC to suppress histone cytotoxicity was studied. […]

Calf Thymus Histones = assay: Aggregation with histone, absorbance at 310 nm; format: binding; conditions: mixture with Calf Thymus Histones
Procedure: The lower left figure and the lower right figure show the measurement results of absorbance at 310 nm of a mixture of a wild-type or oligomer formation capacity-deficient mutant of PTX3 N-terminal domain having each concentration and 0.1 mg/mL Calf Thymus Histones at 1:1 vol.
The aggregation activity of PTX3 and other pentraxins to histone was evaluated. Calf Thymus Histones (50 μg/mL) were mixed with a PTX3 fragment or the other pentraxin at each concentration, and the absorbance at the wavelength of 310 nm was measured. Before mixing, samples were dialyzed against 4 mM CaCl2-containing TBS.

Substance | capacity to suppress cytotoxicity of bovine thymus-derived histone on HUVEC [1] | capacity to suppress cytotoxicity of recombinant histone H4 on HUVEC (histone H4 on HUVEC) | aggregation with Calf Thymus Histones, absorbance at 310 nm (Calf Thymus Histones) | suppression of toxic activity of Calf Thymus Histones on HUVEC ([1]; 100 μg/mL Calf Thymus Histones, 40 μg/mL protein, 1 hr, PI staining, FACS)
PTXN18: E. coli-expressed fragment of about 50 amino acids of PTX3 N-terminal domain with His-tag and TEV sequence, probably amino acids 18-67 (ENLYFQGENSDDYDLMYVNLDNEIDNGLHPTEDPTPCDCGQEHSEWDKLFIMLENSQ; not fully specified; cysteine pairing not given here) | almost equivalent to that of the PTX3 N-terminal domain | almost equivalent to that of the PTX3 N-terminal domain |  | 
SAP: Serum amyloid P component, short pentraxin used as comparator [reference compound] |  |  | no aggregation capacity; also recorded: scarcely showed an aggregation activity | do not have such suppressive effect
